Data: article PMC5767869

Columns and labels:
[1] = biological target: Alexa Fluor 488-labelled K409R half-Fc (IdeS fragment of α-gp120 K409R IgG1WT) (human); assay: fluorescence correlation spectroscopy (FCS); constant 50 pM Alexa Fluor 488-labelled half-Fc, 1:3 or 1:4 dilutions of unlabelled half-Ab (IgG1C→S), equilibrated at room temperature overnight; diffusion times of all four half-Fc/half-Ab combinations globally fitted with one KD each for F405L homodimerisation, K409R homodimerisation and heterodimerisation
[2] = biological target: Alexa Fluor 488-labelled F405L half-Fc (IdeS fragment of α-RSV F405L IgG1WT) (human); assay: as above
[3] = biological target: α-gp120 (clone b12) human IgG1 K409R lacking hinge disulfides (C226S/C229S), half-Ab (human); assay: FRET or BRET; Fab-arm exchange between donor (Alexa Fluor 488)- and acceptor (Alexa Fluor 594)-labelled IgG1C→S Abs, 200 nM each, PBS, 25 °C, no reductant; monoexponential exchange rate taken as the rate of dissociation of the full Ab (half-Ab dimer) into half-Abs
[4] = biological target: α-RSV (clone B21M) human IgG1 F405L lacking hinge disulfides (C226S/C229S), half-Ab (human); assay: as above
[5] = biological target: α-RSV (clone B21M) human IgG1 F405L lacking hinge disulfides (C226S/C229S), half-Ab (human); assay: hydrophobic interaction chromatography; products of cFAE analysed for the share of bsAb

Chain of α-RSV (clone B21M) human IgG1 F405L lacking hinge disulfides (C226S/C229S), half-Ab (human) (heavy, as listed by the source, chain 1 of 2): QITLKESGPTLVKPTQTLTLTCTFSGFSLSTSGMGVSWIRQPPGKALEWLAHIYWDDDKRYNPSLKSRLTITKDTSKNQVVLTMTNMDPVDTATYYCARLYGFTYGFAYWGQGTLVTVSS
Chain of α-RSV (clone B21M) human IgG1 F405L lacking hinge disulfides (C226S/C229S), half-Ab (human) (light, as listed by the source, chain 2 of 2): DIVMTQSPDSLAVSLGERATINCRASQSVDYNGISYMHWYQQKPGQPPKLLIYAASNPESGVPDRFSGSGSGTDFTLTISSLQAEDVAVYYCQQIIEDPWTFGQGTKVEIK

Kd [1]: 0.337 nM
Kd [2]: 0.0656 nM
koff [3]: 0.000673 s⁻¹
koff [4]: 0.000198 s⁻¹
percent bsAb after cFAE [5]: > 90%
Substance: α-gp120 (clone b12) human IgG1 K409R lacking hinge disulfides (C226S/C229S), half-Ab (antibody)
